Laboratory results from patent publication US20170081672.

Experiments:
[1] = tested on: ALS2_T1 TALE-nuclease right subunit; experiment: cell_activity; settings: yeast beta-galactosidase reporter, 37 C, as pair with left subunit; SD or SE 0.02; 0.86 (0.02) at 30 C; NHEJ in N. benthamiana protoplasts 70.68% (DNA, no …)
[2] = tested on: ALS2_T1 TALE-nuclease left subunit; experiment: cell_activity; settings: yeast beta-galactosidase reporter, 37 C, as pair with right subunit; SD or SE 0.02; 0.86 (0.02) at 30 C; NHEJ in N. benthamiana protoplasts 70.68% (DNA, no UTR)

Sequence	activity (relative to I-SceI (max 1.0)) [1]	activity (relative to I-SceI (max 1.0)) [2]
TGTCATGCTGGGTCAG (double strand) [ALS2_T1 right target half-site]	0.97	–
TAGCTTGTTCCACATTT (double strand) [ALS2_T1 left target half-site]	–	0.97
